In assay [1] the target is SIINFEKL/MHC-I complex on DC2.4 cells (mouse) (UniProt P01901). Nature of the assay: flow cytometry of DC2.4 cells loaded with SIINFEKL peptide (positive control), PE-25.D1-16 at 0.6 ug/ml.
Assay [2] has the same target. Nature of the assay: flow cytometry of DC2.4 cells incubated 13 h with OVA antigen fusion protein (SEQ ID NO: 3), PE-25.D1-16 at 0.6 ug/ml.

Take PE-labeled monoclonal antibody 25.D1-16: the percent of cells positively stained in assay [1] is over 80%; in assay [2], 17.6%.

Values taken from patent US20170340751A1.
